The DeepSol protein solubility set

Test: soluble on expression in E. coli; label from the status in PepcDB or PDB records

Soluble on expression in E. coli, not soluble:
MYIELRTSLEMFRSDLVDLEALANASRDALDQLPFVPKGPKMDDDEAHPNPDPESALRSGRLDSLVCATASAAQSALVTCVKLIDWAYEYEPDDEDDDDNDIVPMDDIDDDDEGGGSSGANGGGSNGSGRSGPPDNGDASAAPSVTADELANARPSRGGIALDLPPKPAPVA
MTIRLNDLGQVYLVCGKTDMRQGIDSLAYLVKSQHELDLFSGAVYLFCGGRRDRFKALYWDGQGFWLLYKRFENGKLAWPRNRDEVKCLTAVQVDWLMKGFFISPNIKISKSHDFY
MKKDAKDHARNRLMDCYIKKAPTYAAIVKIEHFENDDASSKDFEPFVVYSLNKKKRWEINEESLNSSTEGTSTKSVIIDREIPDLQDSWWCLQNDLLNNCIYHSNPVNSAQMATAKKYEKVIGYHIVRIPVNHKKVFDKKCTRDLSYRYRDSIGNVPRDLTVLQYEMKEVEHGKEDFAKENISPEVNNPSKTIGFYNLEEHFVARKQQKSKGWLTVN
MTEFTPFFDGSNQLNYLKFVILRFHGVSKRKICKMYNFAYFRILEVCEMAKKNDYRFTYKDYKFLKQYGVSNTFICKMYHISIEDLEFFEVMNR
MMEPITKETRFNELPQQIKQKLINIYRSSHQQYLSMEMLKPTKFNLLYSQTQDLQTRNLQKNFKLLVESAEKLKRMWNLNKDEVDFRYLHENLKKSLEEFKEEVMLYKKNEGNTEFLDEIAMTYAMLRNKLESLTKERRA
MGSDKIHHHHHHMKKEDKTPSRLIQLGKIYRLIEQFEEISRIELSKLSGLAPASITSLSRSLIEKRLIMEKTSRNTDNRGRPAIALCVSPFYWQALCATLVEDRFEIILSELDGVIIEQSVFPLQKDDLECLDKFLVKSVKQFLAETHSLARPITFSVTVGGELDKNGYLIKLGCTKFAHLDLKSLFTPYFNIPILIAEYFKTWLLAESTLGNVINCDDVLFLQLDDEINLSVLSEGELLFSREQDKININHLIVPRLNELQALINHDLPEVERYQVQHQVTHRAIAQFIDALYPNRVFSNNSEKMNFLCEQIQLKDKNALRIIEHITDCLAYILMNLVHIFSARRVMLNSSLLQLKDFLLEQLNRKLKSYLVDNISTVSVIAGKYEWNSPIVAASAIKQGIYDGSLLTSLVKQEENIINF
MGSDKIHHHHHHMANEATQELFQVLDNTAIILQNELEISYLEAVYETGENLFQKEVLQKEELSSEKQLKLQESYESIELENFSNEEIRKGLQLALLKGMKHGIQVNHQMTPDSIGFIVAYLLEKVIQKKKNISILDPACGTANLLTTVINQLELKGDVDVHASGVDVDDLLISLALVGADLQRQKMTLLHQDGLANLLVDPVDVVISDLPVGYYPDDENAKTFELCREEGHSFAHFLFIEQGMRYTKPGGYLFFLVPDAMFGTSDFAKVDKFIKKNGHIEGIIKLPETLFKSEQARKSILILRKADVNVKPPKEVLLANLSSLTDPSVTAPILAEIENWFKSKQ
MAHHHHHHMNFLGGSLRSGGGHRREKGFSAKNKVQQYHGDGSESIVLAGRPFRVLQKISDVPPPYMVTRQRSTKYGEGGSSYVYLVENTSHLPEFPRHLALKRSFFGVDQVMEAHKEVEIVSRIEDKNIVCVYHSEISRSEGRLGVSIAMEYCSNNLYHRIRSSAGTGIVTRLTEAEICHVMFAVTSAVGYLHAQQPPITHRDIRPENILINNKHAGPTAYKLTNFGNATTEAYQCETREEANMAIADIQMHTNPAFRAPEMADPWSKKRICEKTDMWSMGVLLYYMMYMSLPFDPSTTIVKDWALTFPSEATASYTPSLRVITEHLLDPDPCSRWDVFALINYMRFDEDCSRHLGTFCFTKTEWPEGWEEHDVKVLGRTPPPKAPPVSYNEPGHEQLDSRGLRGQERVHGHTNGHQPPDDRGNGRDSAVVDGAAVQEAMIVLGGDPADDDPAVAKYRHQIIMVQQEAWRRAKAAAGLRDSPPTEPQESSAAPAPTRANNEAQKDVFDDLFASASPTVFPTSQASPAMGPSAPPATHQPPEKDVFSASDLFSTSAPQLDPSYPVMNTYGQAPQQMAMGGWGSGAPVMGSGGYPMQQPQNQQQAPWGYGVSNANNYAPPLPPQQQQQQQLQPFTNFLPPLSGQQPGQQQSQQQETSQPRTARATAKRDPFADLFN
GPGSMFLNNNMVDDARTVQLLEEIDVQLERWGKKYGLDPSNEKQKRIPTAGGGDIKPSASSQRSHDVPNVKFVNDRTNSKVGIVETAAVAAPQGFDPSALFDRIDMLEKKLKVAEEERMILSERLFAAERIVVEVVNAQKGLQDEWAALSTQSFSISHLDDDRRTIVDSGKTSKRDCAFTSYTTQSRQSTQSGNSSVAGLSAFVSPAKEDTSRSCLQSPVRNAGSSGSVLGGEEEEDVVGATERRLFALDDLAQRLAV
